# Measured values: publication PMC3871196 (Experimental eye research, 2011)
# Biological target: purified Ca/CaM from bovine brain (bovine, UniProt P62157 1-149)
# Assay: fluorescence polarisation
binder,measurement,value
ETWKAFLESVKKLGKG [PP-C peptide],Kd,190 nM
